The labels stand for the following.
B1: affinity ligand SEQ ID NO: 41 (designed binder)
chain: MAQAAAGDEAQRWETLGAAYAARGDYDRAIEYYQRALELDPNNAWAWWELGVAYAARGDYDRAIEYYQRALELDPDDAAAWRRLGHAYAARGDYDRAIEYYERALELDPEDELARRILEDARRARQGQAGQGGGSGLNDIFEAQKIEWHECHHHHHH
modifications: biotinylated (AviTag system)
B2: affinity ligand SEQ ID NO: 89 (designed binder)
chain: MGGGGSAAAGDEAQHWENQGAAYAARGDYDRAIEYYGRALELDPNNAWAWWELGVAYAARGDYDRAIEYYERALELDPDDATTWSRLGHAYAARGDYDRAIEYYERALELDPEDETARYLLEHARRARQGQAGQGGGSGLNDIFEAQKIEWHECHHHHHH
modifications: biotinylated (AviTag system)
B3: affinity ligand SEQ ID NO: 92 (designed binder)
chain: B2 chain with H15R, G37E, D43E, T83A, E102G, D114N
modifications: biotinylated (AviTag system)
B4: affinity ligand SEQ ID NO: 90 (designed binder)
chain: B2 chain with H15C, G37E, E105V
modifications: biotinylated (AviTag system)
B5: affinity ligand SEQ ID NO: 81 (designed binder)
chain: MGGGGSAAAGDEAERWYDLGAAYAARGDYDRAIEYYQRALELDPNNAWAWWELGVAYAARGDYDRAIEYYQRALELDPNNAVAWRRLGIAYAARGDYDRAIEYYQRALELDPNNEVARDALEYARRARRGQAGQGGGSGLNDIFEAQKIEWHECHHHHHH
modifications: biotinylated (AviTag system)
B6: affinity ligand SEQ ID NO: 154 (designed binder)
chain: MGDEAERWYDLGAAYAARGDYDRAIEYYQRALELDPNDAWAWWELGVAYAARGDYDRAIEYYQRALELDPNNAVAWARLGIAYAARGDYDRAIEYYQRALELDPNNEVARDALEYARRARRCHHHHHH
modifications: biotinylated (AviTag system)
B7: affinity ligand SEQ ID NO: 158 (designed binder)
chain: B6 chain with P70L
modifications: biotinylated (AviTag system)
B8: affinity ligand SEQ ID NO: 155 (designed binder)
chain: B6 chain with L34H, P70T, D111G
modifications: biotinylated (AviTag system)
B9: affinity ligand SEQ ID NO: 156 (designed binder)
chain: MAWAEFRQRLAAIRTRLEALGGSEAELAAFEREIAAFESELQAYAGAGNPEVEALRREAAAIRDELQAYRHNDEAERWYDLGAAYAARGDYDRAIEYYQRALEHDPNDAWAWWELGVAYAARGDYDRAIEYYQRALELDTNNAVAWARLGIAYAARGDYDRAIEYYQRALELDPNNEVARGALEYARRARRHHHHHH
modifications: biotinylated (AviTag system)
B10: affinity ligand SEQ ID NO: 161 (designed binder)
chain: B9 chain with H104L, T140L, G181D
modifications: biotinylated (AviTag system)
B11: affinity ligand SEQ ID NO: 159 (designed binder)
chain: MGHHHHHHDEAERWYDLGAAYAARGDYDRAIEYYQRALEHDPNDAWAWWELGVAYAARGDYDRAIEYYQRALELDTNNAVAWARLGIAYAARGDYDRAIEYYQRALELDPNNEVARGALEYARRARRC
modifications: biotinylated (AviTag system)
B12: affinity ligand SEQ ID NO: 160 (designed binder)
chain: B11 chain with H40L, T76L, G117D
modifications: biotinylated (AviTag system)
B13: affinity ligand SEQ ID NO: 157 (designed binder)
chain: MGLAEAAAREAAARAADEAERWYDLGAAYAARGDYDRAIEYYQRALEHDPNDAWAWWELGVAYAARGDYDRAIEYYQRALELDTNNAVAWARLGIAYAARGDYDRAIEYYQRALELDPNNEVARGALEYARRARRHHHHHH
modifications: biotinylated (AviTag system)
B14: affinity ligand SEQ ID NO: 162 (designed binder)
chain: B13 chain with H48L, T84L, G125D
modifications: biotinylated (AviTag system)

Numbering of substitutions follows the chain as printed.

For one experiment, the target named is dimeric human IgG-lambda (Southern Biotech, Birmingham AL). The experiment can be described thus: BLI (ForteBio), biotinylated ligand on sensor, as in Example 2. For orientation: Biolayer interferometry detects binding as a change in optical thickness at a sensor tip.
By Kd is commonly meant a measure of binding affinity in units of concentration. For B1, the dissociation constant (Kd) turned out to be 3 nM.

In the case of B2, the Kd was less than 1 nM.

With B3, the Kd is less than 1 nM.

B4 yielded a Kd of less than 1 nM.

Another experiment has as its target Tremfya Fab with a lambda light chain and binding specificity for IL23 (from the monoclonal antibody guselkumab). The description is as above.
In turn, B1 returned a Kd of 24 nM.

The molecule B2 registered a Kd of 8 nM.

As to B3, the Kd was 8 nM.

B4: the dissociation constant Kd was 12 nM.

The target of another experiment is Herceptin Fab with a kappa light chain and binding specificity for Her2/neu (from the monoclonal antibody trastuzumab). The experiment is described as above.
The molecule B1 had a Kd of 15 nM.

In the case of B2, the Kd was 41 nM.

Turning to B3, the Kd amounted to 28 nM.

The molecule B4 came in with a Kd of 51 nM.

For the next experiment, the target named is dimeric human IgG-lambda (Southern Biotech, Birmingham AL). The experiment can be described thus: BLI (ForteBio), biotinylated ligand on sensor, 1:1 fit.
B5 yielded a Kd of less than 1 nM.

As for B2, the Kd was less than 1 nM.

B3 gave a Kd of less than 1 nM.

B4 yielded a Kd of less than 1 nM.

The target in another experiment is Tremfya Fab with a lambda light chain and binding specificity for IL23 (from the monoclonal antibody guselkumab). The experiment is described as above.
As for B5, the dissociation constant (Kd) came to 8 nM.

For the molecule B2, the Kd amounted to 8 nM.

In the case of B3, the Kd came out at 8 nM.

For B4, the Kd worked out at 12 nM.

The next experiment addresses Herceptin Fab with a kappa light chain and binding specificity for Her2/neu (from the monoclonal antibody trastuzumab). Described as above.
B5 gave a dissociation constant (Kd) of 31 nM.

In turn, B2 registered a Kd of 41 nM.

Molecule B3 gave a Kd of 28 nM.

In turn, B4 showed a Kd of 51 nM.

A further experiment addresses Ajovy (IgG2 monoclonal antibody). The experiment can be described thus: BLI, biotinylated ligand on sensor; 'Binding affinity (nM)'.
For the molecule B6, the Kd was 92 nM.

For B7, the Kd was 282 nM.

Take B8: the dissociation constant Kd worked out at 117 nM.

B9 yielded a Kd of 224 nM.

With B10, the equilibrium dissociation constant (Kd) turned out to be 654 nM.

On to B11, for which the equilibrium dissociation constant (Kd) came out at 436 nM.

B12 yielded a dissociation constant (Kd) of 543 nM.

Turning to B13, the Kd is 270 nM.

The molecule B14 yielded a Kd of 665 nM.

The target in the next experiment is Praluent (IgG1 monoclonal antibody). The experiment is described as above.
Regarding B6, the Kd was less than 1 nM.

Turning to B7, the Kd was less than 1 nM.

In turn, B8 registered a dissociation constant Kd of less than 1 nM.

Regarding B9, the Kd is less than 1 nM.

In turn, B10 registered a Kd of less than 1 nM.

Take B11: the dissociation constant Kd was less than 1 nM.

In the case of B12, the Kd is less than 1 nM.

B13 registered a Kd of less than 1 nM.

For B14, the Kd is less than 1 nM.

The next experiment deals with Dupixent (IgG4 monoclonal antibody). The description is as above.
Consider B6, for which the Kd worked out at 13 nM.

In the case of B7, the Kd turned out to be 176 nM.

For B8, the Kd came out at 32 nM.

For the molecule B9, the Kd came out at 7 nM.

B10: the Kd came out at 31 nM.

B11 came in with a Kd of 9 nM.

In turn, B12 came in with a Kd of 24 nM.

The molecule B13 returned a Kd of 8 nM.

Molecule B14 returned a Kd of 25 nM.

Values taken from US20250059258A1.
